Experiment [1] concerns the target T1, SARS-CoV-2 spike protein receptor binding domain (RBD) (SARS-CoV-2, UniProt P0DTC2). Description: SPR. The conditions noted are these: both partners purified.
The target in experiment [2] is T1, SARS-CoV-2 spike protein receptor …. Description: cell-based or functional assay.

These results are taken from article PMC7857400 (Science (New York, N.y.), 2020).

B1: Nb20 (VHH)
VHH: QVQLVESGGGLVQAGGSLRLSCAVSGAGAHRVGWFRRAPGKEREFVAAIGASGGMTNYLDSVKGRFTISRDNAKNTIYLQMNSLKPQDTAVYYCAARDIETAEYIYWGQGTQVTVSS
Turning to B1, the Kd (in general, the equilibrium constant for the complex coming apart) in experiment [1] was found to be 0.0104 nM. Besides, the “IC50 of neutralisation, pseudotyped SARS-CoV-2 (luciferase reporter); RBD-hACE2 is the pair interfered with” value in experiment [2] amounted to 0.102 nM.

B2: Nb21 (VHH)
VHH: QVQLVESGGGLVQAGGSLRLSCAVSGLGAHRVGWFRRAPGKEREFVAAIGANGGNTNYLDSVKGRFTISRDNAKNTIYLQMNSLKPQDTAVYYCAARDIETAEYTYWGQGTQVTVSS
With B2, the “IC50 of neutralisation, pseudotyped SARS-CoV-2 (luciferase reporter); RBD-hACE2 is the pair interfered with” value in experiment [2] came out at 0.045 nM.
